Here are results for five proteins from PMC4277747 (Journal of the American Chemical Society, 2014).

Like-named read-outs stand apart in the source and are kept apart here.

What all share (assay): AUC
Data set [1] concerns the molecule itself.
Data set [2] deals with the molecule itself. The source holds these as a separate data set.
Data set [3] deals with the molecule itself. This is another data set of the same source.

Take KEEKQIEKELKQIEKELQAIEWRLAQLRKRLQALRKRKAQKRE (designed binder) [APHi fused to maltose binding protein (MBP)]: in the data set “AUC [1]”, the stoichiometry N (usually the number of molecules, sites or subunits per partner or assembly) was above 2. In addition, the “MW (global fit)/MW (calc., expected dimer mass)” value in “AUC [2]” was 1.7.

Regarding KEKKQLRKELKQLEKELQALRWRLAQIEKRLQAIRKRLAQKEE (designed binder) [APHiv fused to maltose binding protein (MBP)], the “stoichiometry N” value in the data set “AUC [1]” was above 2. For the same protein, in “AUC [2]”, the “MW (global fit)/MW (calc., expected dimer mass)” value was 1.23.

As to KQLKQIEKRLKQIEKRLQAKEWEKAQLRKELQALRKKLAQLRE (designed binder) [APHvi (APH4) fused to maltose binding protein (MBP)], in “AUC [1]”, the “stoichiometry N” value was 2. Besides, the “MW (global fit)/MW (calc., expected dimer mass)” value in “AUC [2]” is 0.96.

Regarding KQLEKELKQLEKELQAIEKQLAQLQWKAQARKKKLAQLKKKLQA (designed binder) [APH fused to maltose binding protein (MBP)], in the data set “AUC [3]”, the “stoichiometry N” value turned out to be 2.

Take KRKKQKRKRAKQLRKRLQALEWQLAQIRKELQAAEKEEAQIEE (designed binder) [APHiii (APH3) fused to maltose binding protein (MBP)]: the “stoichiometry N” value in “AUC [1]” amounted to 2. Further, the “MW (global fit)/MW (calc., expected dimer mass)” value in the data set “AUC [2]” was 0.94.
